Measurements from PMC5064372.

Columns and labels:
[1] = molecular target: catalytically inactive mouse neutrophil elastase (Ser195Ala) with a C-terminal cysteine tag, fluorescently labelled (mouse); assay: MST; AAT serially diluted (titrated), 5 nM fluorescently labelled inactive NE, in 7.5% plasma pool from individuals with high FEV1 (>=80%, n = 8); storage buffer (20 mM Na2HPO4, 300 mM NaCl pH 7.4) with Tween 20, 22 °C, 2 h incubation; global fit of four measurements
[2] = molecular target: catalytically inactive mouse neutrophil elastase (Ser195Ala) with a C-terminal cysteine tag, fluorescently labelled (mouse); assay: MST; AAT serially diluted (titrated), 5 nM fluorescently labelled inactive NE, in 7.5% plasma pool from individuals with low FEV1 (<=50%, n = 12); storage buffer (20 mM Na2HPO4, 300 mM NaCl pH 7.4) with Tween 20, 22 °C, 2 h incubation; global fit of four measurements

Kd [1]: 500 nM
Kd [2]: 1300 nM
Substance: recombinant Z-variant alpha-1-antitrypsin (Glu342Lys) with three stabilizing mutations (Met374Ile, Ser381Ala, Lys387Arg) on the M1(Ala213) background (from UniProt P01009 25-418) (natural protein)
